Values quoted from earlier work in US6440936B2, “Anti-protozoan methods and materials” (Xoma Corporation, priority 1994, dated 2002).

Key:
T. gondii = conditions: 0.25 μg/ml in cyst medium
[1] = system: Staphylococcus aureus (four strains), Staphylococcus epidermidis, Streptococcus faecalis, Bacillus subtilis, Micrococcus lysodeikticus, Listeria monocylogenes; conditions: 10^−6 M or 160 μg/ml; pH 7.0 or 5.5
[2] = system: Candida albicans and Candida parapsilosis; conditions: 10^−6 M; Ph 7.0 or 5.5
[3] = system: human, rabbit and sheep red blood cells and several human tumor cell lines

Molecule | anti-T. gondii effect (T. gondii) | toxic effect on gram-positive organisms [1] | toxic effect on fungi [2] | toxicity to higher eukaryotic cells [3]
C[C@@H]1[C@H](O)[C@@H](C)/C=C/C=C/C=C/C=C/C=C/C=C/C=C/[C@H](O[C@@H]2O[C@H](C)[C@@H](O)[C@H](N)[C@@H]2O)C[C@@H]2O[C@](O)(C[C@@H](O)C[C@@H](O)[C@H](O)CC[C@@H](O)C[C@@H](O)CC(=O)O[C@H]1C)C[C@H](O)[C@H]2C(=O)O [Amphotericin B] | does not have a significant anti-T. gondii effect |  |  | 
BPI: protein isolated from the granules of mammalian polymorphonuclear neutrophils; human BPI approximately 55 kD (protein, UniProt P17213 32-487, looked up) Bactericidal …: VNPGVVVRISQKGLDYASQQGTAALQKELKRIKIPDYSDSFKIKHLGKGHYSFYSMDIREFQLPSSQISMVPNVGLKFSISNANIKISGKWKAQKRFLKMSGNFDLSIEGMSISADLKLGSNPTSGKPTITCSSCSSHINSVHVHISKSKVGWLIQLFHKKIESALRNKMNSQVCEKVTNSVSSELQPYFQTLPVMTKIDSVAGINYGLVAPPATTAETLDVQMKGEFYSENHHNPPPFAPPVMEFPAAHDRMVYLGLSDYFFNTAGLVYQEAGVLKMTLRDDMIPKESKFRLTTKFFGTFLPEVAKKFPNMKIQIHVSASTPPHLSVQPTGLTFYPAVDVQAFAVLPNSSLASLFLIGMHTTGSMEVSAESNRLVGELKLDRLLLELKHSNIGPFPVELLQDIMNYIVPILVLPRVNEKLQKGFPLPTPARVQLYNVVLQPHQNFLLFGADVVYK |  | no toxic effect | no toxic effect | non-toxic
